Article PMC3115021, “Dynamics of Cdk1 Substrate Specificity during the Cell Cycle” (Molecular Cell, 2011)

How the values were obtained:
Assay in all cases: Quantitative phosphorylation assay of T33-Sic1ΔC constructs and recombinant substrates
Format in all cases: biochemical
Details in all cases: Table S2; purified protein substrate; relative values, not divided by [S]
Clb3hpm-Cdk1 = molecular target: T1, Clb3hpm-Cdk1 (Saccharomyces cerevisiae, UniProt P00546+P24870)
T1 construct: made in house; host or cells: S. cerevisiae strain MK0168 (gal-CLB3hpm-TAP, sic1 deleted); Cks1 from bacteria
Description: (§1) For the quantitative phosphorylation assays of T33-Sic1ΔC constructs and recombinant substrates, substrate concentrations were kept in the range of 0.5–2 μM (in the linear [S] versus v0 range, several-fold below the estimated KM value), and initial velocity conditions were defined as an initial substrate turnover of up to 10% of the total turnover. For the steady-state peptide kinetics of the Histone peptide PKTPKKAKKL, a similar assay composition was used as for protein substrates, and phosphocellulose paper was used for the quantification of the phosphorylated substrate.
(§2) Supplemental Experimental Procedures
(§3) Plasmid constructs and yeast strains
(§4) For tandem affinity purification (TAP) of cyclin-Cdk1 complexes, the cyclin genes were cloned into the 2 micron vector pRSAB1234 containing a GAL1 promoter and the C-terminal TAP-tag. To purify different 6His-T33-Sic1ΔC forms for kinase assays, the C-terminally truncated fragment of Sic1 (with a stop codon inserted after amino acid 215) was cloned into the NheI/BamHI site of the bacterial expression vector pET28a (Invitrogen). Mutagenesis of cyclins or substrates was performed using single-stranded pRSAB1234 or pET28a vector constructs as templates. The triple mutants in the hydrophobic patch (hpm) of Clb5 and Clb2 were described previously (Loog and Morgan, 2005), and the hpm of Clb3 (Phe-201, Leu-205 and Trp-208 mutated to alanines) was designed according to sequence homology with other B-type cyclins. In T33-Sic1ΔC constructs, the other Cdk sites bearing the consensus motif S/T-P were mutated to Ala-Ala in order to prevent any possible (pseudo)substrate competition. The other Cdk substrates were cloned as full-length forms into bacterial expression vectors pET28a or pGEX-4T-1. Cdh1 was purified using the baculovirus system and was a kind gift from Monica Rodrigo-Brenni (UCSF). […]
The […]
(§5) pRSAB1234 analogously to the cyclin-Cdk1 complexes. For C-terminal tagging of cyclin genes in their chromosomal loci, the Pringle method was applied (Longtine et al., 1998). Lists of plasmid […]
(§6) The TAP method was applied for purification of cyclin-Cdk1 complexes and Swe1 as described previously for Clb5-TAP-Cdk1 and Clb2-TAP-Cdk1 (Puig et al., 2001; Ubersax et al., 2003). […]
(§7) tagged recombinant T33-Sic1ΔC constructs and substrates were cloned into the pET28a vector and purified by standard cobalt affinity chromatography and elution with 200 mM imidazole. 6His-Fin1 was purified as described previously (Woodbury and Morgan, 2007). Substrates cloned into the pGEX-4T-1 were purified on glutathione agarose columns using 5 mM reduced glutathione for elution. Cks1 was purified as described previously (Reynard et al., 2000). The optimal working concentration for purified Cks1 was taken as 500 nM based on optimization performed for cyclin-Cdk1 preparations and T33-Sic1ΔC as a substrate.
(§8) For the quantitative phosphorylation assays of T33-Sic1ΔC constructs and recombinant substrates, substrate concentrations were kept in the range of 0.5-2 μM (in the linear [S] vs v0 range, several-fold below the estimated KM value), and the initial velocity conditions were defined as an initial substrate turnover ranging up to 10% of the total turnover. The latter was estimated by a long-term incubation with excess amounts of cyclin-Cdk1 and 32P-γ-ATP in the standard reaction mixture given below. About 1-10 nM of purified kinase complex was used, reaction aliquots were taken at two or more time points, and the reaction was stopped by SDS-PAGE sample buffer. The relative kcat/KM values for the substrates were calculated as the ratio of v0/[S], which was determined from at least two independent experiments. The basal composition of the assay mixture contained 50 mM Hepes, pH 7.4, 100 mM NaCl, 0.1% NP-40, 20 mM imidazole, 0.1 mg/ml 2HA peptide, 2% glycerol, 2 mM EGTA, 0.2 mg/ml BSA, […], and 500 μM ATP (with added 32P-γ-ATP (Perkin Elmer)).
(§9) About 1-10 nM of purified kinase complex was used, reaction aliquots were taken at two or more […]

Clb5hpm-Cdk1 = molecular target: T2, Clb5hpm-Cdk1 (Saccharomyces cerevisiae, UniProt P00546)
T2 construct: made in house; host or cells: S. cerevisiae strain DOM0963 (gal-CLB5hpm-TAP, sic1 deleted); Cks1 from bacteria
Description: as §1, §2, §3, §4
The […]
as §5, §6, §7, §8, §9

Clb2hpm-Cdk1 = molecular target: T3, Clb2hpm-Cdk1 (Saccharomyces cerevisiae, UniProt P00546)
T3 construct: made in house; host or cells: S. cerevisiae strain DOM0964 (gal-CLB2hpm-TAP, sic1 deleted); Cks1 from bacteria
Description: as §1, §2, §3, §4
The […]
as §5, §6, §7, §8, §9

Clb5-Cdk1 = molecular target: T4, Clb5-Cdk1 (Saccharomyces cerevisiae, UniProt P00546+P30283)
T4 construct: We purified the four cyclin-Cdk1 complexes from yeast; made in house; host or cells: S. cerevisiae strain DOM0076 (gal-CLB5-TAP, sic1 deleted); Cks1 from bacteria
Description: as §1, with “substrate. […]” for “substrate.”
as §7, with “similar substrate specificity as the Cln2-Cdk1 version purified using a TAP-tag. N-terminally 6His-tagged” for “tagged”
as §8
(§10) About 1-10 nM of purified kinase complex was used, reaction aliquots were taken at two or more time points, and the reaction was stopped by SDS-PAGE sample buffer. For the steady-state peptide kinetics of the Histone peptide PKTPKKAKKL, a similar assay composition was used as for protein substrates and the standard phosphocellulose method was applied for the quantification of the phosphorylated substrate (Loog and Morgan, 2005). Synthetic peptides as competitor agents were used in 4 mM final concentrations. […]

Clb3-Cdk1 = molecular target: T5, Clb3-Cdk1 (Saccharomyces cerevisiae, UniProt P00546+P24870)
T5 construct: We purified the four cyclin-Cdk1 complexes from yeast; made in house; host or cells: S. cerevisiae strain DOM0957 (gal-CLB3-TAP, sic1 deleted); Cks1 from bacteria
Description: as §1, with “substrate. […]” for “substrate.”
as §7, with “similar substrate specificity as the Cln2-Cdk1 version purified using a TAP-tag. N-terminally 6His-tagged” for “tagged”
as §8, §10

Cln2-Cdk1 = molecular target: T6, Cln2-Cdk1 (Saccharomyces cerevisiae, UniProt P00546+P20438)
T6 construct: We purified the four cyclin-Cdk1 complexes from yeast; made in house; host or cells: S. cerevisiae strain DMY305 (galactose-induced); Cks1 from bacteria
Description: as §1, with “substrate. […]” for “substrate.”
as §7, with “similar substrate specificity as the Cln2-Cdk1 version purified using a TAP-tag. N-terminally 6His-tagged” for “tagged”
as §8, §10

Clb2-Cdk1 = molecular target: T7, Clb2-Cdk1 (Saccharomyces cerevisiae, UniProt P00546+P24869)
T7 construct: We purified the four cyclin-Cdk1 complexes from yeast; made in house; host or cells: S. cerevisiae strain DOM0077 (gal-CLB2-TAP, sic1 deleted); Cks1 from bacteria
Description: as §1, with “substrate. […]” for “substrate.”
as §7, with “similar substrate specificity as the Cln2-Cdk1 version purified using a TAP-tag. N-terminally 6His-tagged” for “tagged”
as §8, §10

T4 sequence (P00546 2-298 limits assumed): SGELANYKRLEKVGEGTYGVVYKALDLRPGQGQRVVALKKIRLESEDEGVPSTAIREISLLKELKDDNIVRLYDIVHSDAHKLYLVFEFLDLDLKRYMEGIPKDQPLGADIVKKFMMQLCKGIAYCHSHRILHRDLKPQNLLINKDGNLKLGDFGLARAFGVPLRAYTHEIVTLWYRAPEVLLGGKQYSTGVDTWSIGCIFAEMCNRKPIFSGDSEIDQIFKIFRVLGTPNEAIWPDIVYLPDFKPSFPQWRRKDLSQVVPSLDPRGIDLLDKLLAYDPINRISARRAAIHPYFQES
T4 sequence (P30283 whole entry partner): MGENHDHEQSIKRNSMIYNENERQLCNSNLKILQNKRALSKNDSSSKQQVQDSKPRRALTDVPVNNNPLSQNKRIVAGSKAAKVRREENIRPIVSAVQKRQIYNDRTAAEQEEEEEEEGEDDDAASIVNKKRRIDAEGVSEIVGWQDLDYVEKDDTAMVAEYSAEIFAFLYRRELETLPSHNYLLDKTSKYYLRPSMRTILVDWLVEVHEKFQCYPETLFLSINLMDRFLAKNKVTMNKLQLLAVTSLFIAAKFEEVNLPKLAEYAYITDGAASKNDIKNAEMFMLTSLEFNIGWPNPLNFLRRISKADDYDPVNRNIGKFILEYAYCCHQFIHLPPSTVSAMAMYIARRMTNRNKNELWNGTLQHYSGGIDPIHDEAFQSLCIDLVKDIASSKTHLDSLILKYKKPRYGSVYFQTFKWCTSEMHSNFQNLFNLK
T4 sequence (P20486 whole entry partner): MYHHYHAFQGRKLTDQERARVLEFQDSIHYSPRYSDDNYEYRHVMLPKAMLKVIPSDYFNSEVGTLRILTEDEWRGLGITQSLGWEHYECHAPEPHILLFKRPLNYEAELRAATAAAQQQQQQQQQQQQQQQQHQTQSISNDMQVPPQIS
T6 sequence (P00546 2-298 limits assumed): as the sequence (P00546 2-298 limits assumed) above
T6 sequence (P20438 whole entry partner): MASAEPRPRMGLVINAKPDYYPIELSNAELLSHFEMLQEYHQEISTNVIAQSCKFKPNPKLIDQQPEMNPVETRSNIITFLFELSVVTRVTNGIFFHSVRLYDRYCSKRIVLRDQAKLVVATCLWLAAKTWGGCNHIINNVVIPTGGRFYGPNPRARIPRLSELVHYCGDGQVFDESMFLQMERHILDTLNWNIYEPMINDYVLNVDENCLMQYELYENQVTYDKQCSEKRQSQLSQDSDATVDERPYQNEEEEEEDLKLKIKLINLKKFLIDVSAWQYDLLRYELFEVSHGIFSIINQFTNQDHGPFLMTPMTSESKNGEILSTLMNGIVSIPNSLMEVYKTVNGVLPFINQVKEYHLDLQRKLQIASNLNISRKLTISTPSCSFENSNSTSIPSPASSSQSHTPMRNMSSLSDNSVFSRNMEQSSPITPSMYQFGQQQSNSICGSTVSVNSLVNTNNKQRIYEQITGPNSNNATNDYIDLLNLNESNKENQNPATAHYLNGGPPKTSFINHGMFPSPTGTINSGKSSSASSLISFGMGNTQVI
T6 sequence (P20486 whole entry partner): as the sequence (P20486 whole entry partner) above
T2 sequence (P00546 2-298 limits assumed): as the sequence (P00546 2-298 limits assumed) above
T7 sequence (P00546 2-298 limits assumed): as above
T7 sequence (P24869 2-491 partner limits assumed): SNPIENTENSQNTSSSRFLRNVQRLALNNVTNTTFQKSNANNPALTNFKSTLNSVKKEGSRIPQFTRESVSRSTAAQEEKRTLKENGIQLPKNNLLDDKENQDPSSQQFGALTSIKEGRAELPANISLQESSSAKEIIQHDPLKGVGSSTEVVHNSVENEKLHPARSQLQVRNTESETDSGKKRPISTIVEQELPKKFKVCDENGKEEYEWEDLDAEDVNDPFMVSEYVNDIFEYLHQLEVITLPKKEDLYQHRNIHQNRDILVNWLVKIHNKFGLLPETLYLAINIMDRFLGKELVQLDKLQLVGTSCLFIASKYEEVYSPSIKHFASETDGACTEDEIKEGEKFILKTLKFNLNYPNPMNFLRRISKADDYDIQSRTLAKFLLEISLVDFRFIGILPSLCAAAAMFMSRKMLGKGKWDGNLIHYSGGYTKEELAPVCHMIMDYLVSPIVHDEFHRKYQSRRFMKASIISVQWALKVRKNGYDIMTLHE
T7 sequence (P20486 whole entry partner): as the sequence (P20486 whole entry partner) above
T5 sequence (P00546 2-298 limits assumed): as the sequence (P00546 2-298 limits assumed) above
T5 sequence (P24870 whole entry partner): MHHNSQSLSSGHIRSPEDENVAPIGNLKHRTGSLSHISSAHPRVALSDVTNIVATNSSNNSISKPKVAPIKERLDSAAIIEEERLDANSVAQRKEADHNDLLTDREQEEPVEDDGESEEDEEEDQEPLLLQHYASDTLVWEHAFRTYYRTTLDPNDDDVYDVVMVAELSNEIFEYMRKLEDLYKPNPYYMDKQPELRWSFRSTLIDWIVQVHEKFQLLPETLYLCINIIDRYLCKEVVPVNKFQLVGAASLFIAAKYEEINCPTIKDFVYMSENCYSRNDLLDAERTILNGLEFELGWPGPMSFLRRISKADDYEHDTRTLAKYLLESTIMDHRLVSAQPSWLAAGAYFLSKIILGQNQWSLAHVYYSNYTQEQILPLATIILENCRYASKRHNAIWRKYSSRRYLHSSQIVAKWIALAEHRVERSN
T5 sequence (P20486 whole entry partner): as the sequence (P20486 whole entry partner) above
T3 sequence (P00546 2-298 limits assumed): as the sequence (P00546 2-298 limits assumed) above

B1: ORC2: purified yeast protein tested as Cdk1 substrate (protein, UniProt P32833 1-620, looked up)
Origin recognition complex …: MLNGEDFVEHNDILSSPAKSRNVTPKRVDPHGERQLRRIHSSKKNLLERISLVGNERKNTSPDPALKPKTPSKAPRKRGRPRKIQEELTDRIKKDEKDTISSKKKRKLDKDTSGNVNEESKTSNNKQVMEKTGIKEKREREKIQVATTTYEDNVTPQTDDNFVSNSPEPPEPATPSKKSLTTNHDFTSPLKQIIMNNLKEYKDSTSPGKLTLSRNFTPTPVPKNKKLYQTSETKSASSFLDTFEGYFDQRKIVRTNAKSRHTMSMAPDVTREEFSLVSNFFNENFQKRPRQKLFEIQKKMFPQYWFELTQGFSLLFYGVGSKRNFLEEFAIDYLSPKIAYSQLAYENELQQNKPVNSIPCLILNGYNPSCNYRDVFKEITDLLVPAELTRSETKYWGNHVILQIQKMIDFYKNQPLDIKLILVVHNLDGPSIRKNTFQTMLSFLSVIRQIAIVASTDHIYAPLLWDNMKAQNYNFVFHDISNFEPSTVESTFQDVMKMGKSDTSSGAEGAKYVLQSLTVNSKKMYKLLIETQMQNMGNLSANTGPKRGTQRTGVELKLFNHLCAADFIASNEIALRSMLREFIEHKMANITKNNSGMEIIWVPYTYAELEKLLKTVLNTL
kcat/KM, Clb3hpm (Clb3hpm-Cdk1): 0.028 relative units
kcat/KM, Clb5hpm (Clb5hpm-Cdk1): 0.012 relative units
kcat/KM, Clb2hpm (Clb2hpm-Cdk1): 0.067 relative units
kcat/KM, Clb5 (Clb5-Cdk1): 0.405 relative units
kcat/KM, Clb3 (Clb3-Cdk1): 0.132 relative units
kcat/KM, Cln2 (Cln2-Cdk1): 0.073 relative units
kcat/KM, Clb2 (Clb2-Cdk1): 0.018 relative units

B2: ORC6: purified yeast protein tested as Cdk1 substrate (protein, UniProt P38826 1-435, looked up)
Origin recognition complex …: MSMQQVQHCVAEVLRLDPQEKPDWSSGYLKKLTNATSILYNTSLNKVMLKQDEEVARCHICAYIASQKMNEKHMPDLCYYIDSIPLEPKKAKHLMNLFRQSLSNSSPMKQFAWTPSPKKNKRSPVKNGGRFTSSDPKELRNQLFGTPTKVRKSQNNDSFVIPELPPMQTNESPSITRRKLAFEEDEDEDEEEPGNDGLSLKSHSNKSITGTRNVDSDEYENHESDPTSEEEPLGVQESRSGRTKQNKAVGKPQSELKTAKALRKRGRIPNSLLVKKYCKMTTEEIIRLCNDFELPREVAYKIVDEYNINASRLVCPWQLVCGLVLNCTFIVFNERRRKDPRIDHFIVSKMCSLMLTSKVDDVIECVKLVKELIIGEKWFRDLQIRYDDFDGIRYDEIIFRKLGSMLQTTNILVTDDQYNIWKKRIEMDLALTEPL
kcat/KM, Clb3hpm (Clb3hpm-Cdk1): 0.002 relative units
kcat/KM, Clb5hpm (Clb5hpm-Cdk1): 0.001 relative units
kcat/KM, Clb2hpm (Clb2hpm-Cdk1): 0.005 relative units
kcat/KM, Clb5 (Clb5-Cdk1): 0.029 relative units
kcat/KM, Clb3 (Clb3-Cdk1): 0.018 relative units
kcat/KM, Cln2 (Cln2-Cdk1): 0.002 relative units
kcat/KM, Clb2 (Clb2-Cdk1): 0.009 relative units

B3: PDS1: GST-tagged purified yeast protein tested as Cdk1 substrate (protein, UniProt P40316 1-373, looked up)
Securin: MMPANEDKENNIVYTGNESSGINFPQTPAHLLKRSHSNILKPPVRLDQLKRDANSNNGNTLKYIQGGKEVSPTKRLHTHAQQQGRLPLAAKDNNRSKSFIFPETSNQSKDADLPQLQNTLSIRKNDQLRKLSQISRSRSRANHNDLLSNSRKLQKYGSVLGYNALPKMKSLVLKDLADSGKNEESSDDDEGNEDSESKLGKKLQSALLKQDSSDGENELNGGLGLFNEQGGLQQLIKNSTKNEQKTKNDKSDKTDDYDIEIAPQRQEPLPYVPEGYSPFQQDDIEKLKTFNSPYKLDLEDEDDTPDKVDLLPLEQIDEEGEKDETECITRNQEEGAALPLLSKNFKEVAAVPTMELVYSEEGLDPEELEDLVT
modifications: GST tag
notes: GST-tagged purified yeast protein tested as Cdk1 substrate
kcat/KM, Clb3hpm (Clb3hpm-Cdk1): 0.005 relative units
kcat/KM, Clb5hpm (Clb5hpm-Cdk1): 0.002 relative units
kcat/KM, Clb2hpm (Clb2hpm-Cdk1): 0.035 relative units
kcat/KM, Clb5 (Clb5-Cdk1): 0.008 relative units
kcat/KM, Clb3 (Clb3-Cdk1): 0.015 relative units
kcat/KM, Cln2 (Cln2-Cdk1): 0.249 relative units
kcat/KM, Clb2 (Clb2-Cdk1): 0.049 relative units

B4: PLM2: purified yeast protein tested as Cdk1 substrate (protein, UniProt Q04383 1-521, looked up)
Protein PLM2: MSHLFPPSSPVAGKPLESPQKEPGKLANTSVLTLGRKRYNYELEEYPTPDPSSSIGRQSSPVKDITSRLNETKSALSSPSKQEKVLAGPIEIELDASDPSRLAIGRKKSVCNIILPCRKNISRQHAFISYAADRNEIKLECNGTNGLSVHLPYSMQLHLVKPFPTRNFYKLVAEEPLTSQNTKQSHGKTLQKNQNFISFVLAKGETVTFPYIQGSFINFTGVTVCLSLKKVAPYPGDGNNNFDEENSTETEDELCLLTTTSDDFSWQKETPSMKFVPVEHSPRTEQISKPLLIASPALVKNSPISYRTTPQTSFVINQPSTPKKLKRKSISLKNNTIQETPLPKDKIIGTLSASTRSGGINEEESFAAVAKKTKELSSTTAIVSPAQKRLKTSLNIIPEISRSLSERGIRFDDLVHVLCNHLAFSNLQQTPLSQLQNINSNTSQLSKDELKKVLETISCIGIIVREGKDASGKPLEDEYYYDVENDDSDERKILYNSLKGRSRLRSCRKKHKQYFWKRPTK
kcat/KM, Clb3hpm (Clb3hpm-Cdk1): 1.144 relative units
kcat/KM, Clb5hpm (Clb5hpm-Cdk1): 0.428 relative units
kcat/KM, Clb2hpm (Clb2hpm-Cdk1): 6.351 relative units
kcat/KM, Clb5 (Clb5-Cdk1): 1.724 relative units
kcat/KM, Clb3 (Clb3-Cdk1): 9.051 relative units
kcat/KM, Cln2 (Cln2-Cdk1): 0.428 relative units
kcat/KM, Clb2 (Clb2-Cdk1): 9.072 relative units
